According to publication PMC7761469:

Biological target: epidermal growth factor receptor (EGFR) (human (endogenous in LNCaP, DU145 and PC-3)) (UniProt P00533)
Assay: flow cytometry on cells

## targeted toxin EGF-PE40
  fold reduction of binding compared to EGF: 28.6 to 76.1 fold
